Measurements from article PMC3012696, “Crystal Structure of UBA2^ufd-Ubc9: Insights into E1-E2 Interactions in Sumo Pathways” (PLoS ONE, 2010).

Biological target: T1, Ubc9 (Sumo E2 conjugating enzyme), S. cerevisiae (S. cerevisiae, UniProt P50623 1-157)
T1 construct: Ubc9, S. cerevisiae; also called yeast Ubc9; source: cation exchange for crystallography; not shown: GST, N-terminal, cleaved
T1 sequence: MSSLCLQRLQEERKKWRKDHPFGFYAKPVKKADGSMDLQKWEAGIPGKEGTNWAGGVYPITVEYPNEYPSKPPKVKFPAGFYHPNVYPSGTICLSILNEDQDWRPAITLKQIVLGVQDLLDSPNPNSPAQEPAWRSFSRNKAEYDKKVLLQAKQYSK
Assay: crystal structure; 1.1:1 volume:volume mixture of Uba2^ufd at 22 mg/ml and Ubc9 at 27 mg/ml; crystals at 4°C; 20% (w/v) PEG3350, 0.1 M Bis-Tris pH 5.5, 0.2 M Li2SO4; 2.3 Å; two complexes per asymmetric unit
Details: both partners purified

binding result: binds
B1: Uba2 ubiquitin-fold domain (Uba2^ufd), residues 439-563, S. cerevisiae (domain or fragment, UniProt P52488 439-563, looked up)
chain: SKVCRGVIKLSSDCLNKMKLSDFVVLIREKYSYPQDISLLDASNQRLLFDYDFEDLNDRTLSEINLGNGSIILFSDEEGDTMIRKAIELFLDVDDELPCNTCSLPDVEVPLIKANNSPSKNEEEE
notes: Uba2 (Sumo E1 subunit), S. cerevisiae, C-terminal ubiquitin-fold domain, residues 439-563; Expressed from pGEX-4T1; also called yeast Uba2^ufd; not shown: GST, N-terminal, cleaved
